# Columns and labels:
# [1] = target: T1, recombinant cMet/HGFR with c-terminal His-tag, Cy5-labeled (UniProt P08581 25-932, limits assumed, Cy5 label (reacted with Cy5 Mono NHS Ester; sites not stated)); assay: competitive TR-FRET (Eu-amivantamab/Cy5-c-MET), EC50 ratio vs Reference Material; Ex. 11 drug product, 9 months at 5 C
# T1 construct: Commercial protein; also called Cy5-c-MET; Cy5-labeled c-MET antigen; not shown: C-terminal His-tag
# Text: (§1) In this procedure, varying concentrations of unlabeled bispecific EGFR-cMet antibody sample compete with donor fluorophore (Europium (Eu) chelate) labeled bispecific EGFR-cMet antibody for binding to an acceptor fluorophore (Cy5)-labeled c-MET antigen. Excitation of the donor fluorophore results in a transfer of energy to the bound acceptor fluorophore (FRET process). The resultant FRET is detected by emission of light at 665 nm using a microplate reader capable of measuring time-resolved fluorescence. Sample dose response curves are compared to the Reference Material (RM).
# (§2) c-MET Binding Materials and Methods. Certified commercial cMet, a recombinant cMet/HGFR with c-terminal His-tag is reacted with certified commercial Cy5 Mono NHS Ester to produce Cy5-labeled c-MET. Validated bispecific EGFR-cMet antibody is reacted with certified commercial Europium (Eu) chelate to produce Eu labeled bispecific EGFR-cMet antibody. […] Fluorescence is then measured by spectrophotometry at 665 nm, plotted against antibody concentration and analyzed by a four-parameter logistic model. The antibody concentration required to obtain half of the maximum fluorescence response (EC50) is determined for RM, assay control and samples. The potencies of assay control and samples are calculated based on the ratio of the sample (or control) and RM EC50 values and reported as a percentage activity relative to the RM.
# [2] = target: T2, recombinant human EGFR/ErbB1/HER1 with C-terminal His tag, Cy5-labeled (human, UniProt P00533 25-645, Cy5 label (reacted with Cy5 Mono NHS Ester; sites not stated)); assay: competitive TR-FRET (Eu-amivantamab/Cy5-EGFR), EC50 ratio vs Reference Material; Ex. 11 drug product, 3 months at 25 C
# T2 construct: Commercial protein; also called Cy5-EGFR; Cy5-labeled EGFR antigen; not shown: C-terminal His tag
# Text: as §1, with “EGFR” for “c-MET”, “RM.” for “Reference Material (RM).”
# as §2, with “EGFR” for “c-MET”, “EGFR,” for “cMet,”, “human EGFR/ErbB1/HER1” for “cMet/HGFR”, “C-terminal His tag” for “c-terminal His-tag”, “EGFR.” for “c-MET.”, “Eu-labeled” for “Eu labeled”
# [3] = target: T1, recombinant cMet/HGFR with c-terminal …; assay: competitive TR-FRET (Eu-amivantamab/Cy5-c-MET), EC50 ratio vs Reference Material; Ex. 2 Formulation 3 (acetate), T0, 5 C table
# Text: as §1, §2
# [4] = target: T1, recombinant cMet/HGFR with c-terminal …; assay: competitive TR-FRET (Eu-amivantamab/Cy5-c-MET), EC50 ratio vs Reference Material; Ex. 2 Formulation 3 (acetate), 3 months at 25 C
# Text: as §1, §2
# [5] = target: T2, recombinant human EGFR/ErbB1/HER1 with …; assay: competitive TR-FRET (Eu-amivantamab/Cy5-EGFR), EC50 ratio vs Reference Material; Ex. 12 drug product with rHuPH20, 3 months at 5 C
# Text: as §1, with “EGFR” for “c-MET”, “RM.” for “Reference Material (RM).”
# as §2, with “EGFR” for “c-MET”, “EGFR,” for “cMet,”, “human EGFR/ErbB1/HER1” for “cMet/HGFR”, “C-terminal His tag” for “c-terminal His-tag”, “EGFR.” for “c-MET.”, “Eu-labeled” for “Eu labeled”
# [6] = target: T2, recombinant human EGFR/ErbB1/HER1 with …; assay: competitive TR-FRET (Eu-amivantamab/Cy5-EGFR), EC50 ratio vs Reference Material; Ex. 2 Formulation 1 (10 mM histidine), 3 months at 25 C
# Text: as §1, with “EGFR” for “c-MET”, “RM.” for “Reference Material (RM).”
# as §2, with “EGFR” for “c-MET”, “EGFR,” for “cMet,”, “human EGFR/ErbB1/HER1” for “cMet/HGFR”, “C-terminal His tag” for “c-terminal His-tag”, “EGFR.” for “c-MET.”, “Eu-labeled” for “Eu labeled”
# [7] = target: T1, recombinant cMet/HGFR with c-terminal …; assay: competitive TR-FRET (Eu-amivantamab/Cy5-c-MET), EC50 ratio vs Reference Material; Ex. 2 Formulation 1 (10 mM histidine), 3 months at 40 C
# Text: as §1, §2
# [8] = target: T1, recombinant cMet/HGFR with c-terminal …; assay: competitive TR-FRET (Eu-amivantamab/Cy5-c-MET), EC50 ratio vs Reference Material; Ex. 3 acetate formulation, 6 months at 25 C then shaking up to 72 h
# Text: as §1, §2
binder,measurement,setting,value
"amivantamab (bispecific antibody, human IgG1, kappa, The samples tested were high concentration (160 mg/mL) formulations, fresh or stored or stressed; also called JNJ-61186372; bispecific EGFR-cMet antibody) heavy 1: not shown light 1: not shown heavy 2: not shown light 2: DIQMTQSPSSVSASVGDRVTITCRASQGISNWLAWFQHKPGKAPKLLIYAASSLLSGVPSRFSGSGSGTDFTLTISSLQPEDFATYYCQQANSFPITFGQGTRLEIKRTVAAPSVFIFPPSDEQLKSGTASVVCLLNNFYPREAKVQWKVDNALQSGNSQESVTEQDSKDSTYSLSSTLTLSKADYEKHKVYACEVTHQGLSSPVTKSFNRGEC",cMET Binding activity relative to Reference Material (%),[1],101%
same,EGFR Binding activity relative to Reference Material (%),[2],71%
same,cMET Binding % activity relative to RM,[3],94%
same,cMET Binding % activity relative to RM,[4],105%
same,EGFR Binding activity relative to Reference Material (%),[5],82%
same,EGFR Binding % activity relative to RM,[6],100%
same,cMET Binding % activity relative to RM,[7],67%
same,cMET Binding % activity relative to RM,[8],97%
